The text below walks through data of PMC5928098, “Association of BrERF72 with methyl jasmonate-induced leaf senescence of Chinese flowering cabbage through activating JA biosynthesis-related genes”.

Data set [1] addresses T1, GST-BrERF72 (Brassica (Chinese flowering cabbage), UniProt M4CBR0 1-245). Description: EMSA; LightShift Chemiluminescent EMSA kit, 6% native PAGE; buffer, salt, pH and temperature not stated. Conditions: protein: recombinant, tags: N-terminal GST (pGEX-4T-1), label: 5' biotin. In general terms: A gel shift assay detects complexes by their altered migration in electrophoresis.

For data set [2], the target named is T1, GST-BrERF72. The data set can be described thus: competition; unlabeled mutant vs labeled BrAOC3 probe; LightShift Chemiluminescent EMSA kit, 6% native PAGE; buffer, salt, pH and temperature not stated. The following applies: protein: recombinant; tags: N-terminal GST (pGEX-4T-1); blunt.
Data set [3] addresses T1, GST-BrERF72. Description: competition; unlabeled mutant vs labeled BrLOX4 probe; LightShift Chemiluminescent EMSA kit, 6% native PAGE; buffer, salt, pH and temperature not stated. Conditions: protein: recombinant; tags: N-terminal GST (pGEX-4T-1); blunt.
Data set [4] addresses T1, GST-BrERF72. The data set can be described thus: competition; unlabeled mutant vs labeled BrOPR3 probe; LightShift Chemiluminescent EMSA kit, 6% native PAGE; buffer, salt, pH and temperature not stated. Conditions: protein: recombinant; tags: N-terminal GST (pGEX-4T-1); blunt.

T1 sequence (M4CBR0 entry or part of it): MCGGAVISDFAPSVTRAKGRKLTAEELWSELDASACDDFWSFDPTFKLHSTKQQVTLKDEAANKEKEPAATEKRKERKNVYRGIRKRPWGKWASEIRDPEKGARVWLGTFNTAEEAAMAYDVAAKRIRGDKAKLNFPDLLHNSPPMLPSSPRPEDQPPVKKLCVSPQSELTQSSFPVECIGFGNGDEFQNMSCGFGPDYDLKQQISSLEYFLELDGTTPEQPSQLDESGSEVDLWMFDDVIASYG

B1: GCC-box probe (dsDNA)
DNA 1: CATAAGAGCCGCCACTCATAAGAGCCGCCACT
DNA 2: AGTGGCGGCTCTTATGAGTGGCGGCTCTTATG
In the case of B1, in the data set with GST-BrERF72 [1], the binding result is recorded as “binds”.

B2: BrOPR3 promoter probe (dsDNA)
DNA 1: CCTGAACCAATCATAGCCTGGCGGCTAAGTCTTACAGTTGA
DNA 2: TCAACTGTAAGACTTAGCCGCCAGGCTATGATTGGTTCAGG
With B2, the binding result with GST-BrERF72 [1] (blunt) is “binds”.

B3: BrAOC3 promoter probe (dsDNA)
DNA 1: ATGTCTTCACTAAAAACACTATACCGACCAGAGTTTTGTAGACATAAATTACGAA
DNA 2: TTCGTAATTTATGTCTACAAAACTCTGGTCGGTATAGTGTTTTTAGTGAAGACAT
B3: the binding result with GST-BrERF72 [1] (blunt) is “binds”.

B4: mBrAOC3 promoter probe (dsDNA)
DNA 1: ATGTCTTCACTAAAAACACTATAAAAAACAGAGTTTTGTAGACATAAATTACGAA
DNA 2: TTCGTAATTTATGTCTACAAAACTCTGTTTTTTATAGTGTTTTTAGTGAAGACAT
For the molecule B4, in the data set with GST-BrERF72 [2], the binding result was “no binding”.

B5: BrLOX4 promoter probe (dsDNA)
DNA 1: ACATGTTATATCCGCGCGAAGCGCGGACACCGACTCTAGTTATCAGTAAAAATAAATG
DNA 2: CATTTATTTTTACTGATAACTAGAGTCGGTGTCCGCGCTTCGCGCGGATATAACATGT
With B5, the binding result with GST-BrERF72 [1] (blunt) is “binds”.

B6: mBrLOX4 promoter probe (dsDNA)
DNA 1: ACATGTTATATCCGCGCGAAGCGCGGACAAAAAATCTAGTTATCAGTAAAAATAAATG
DNA 2: CATTTATTTTTACTGATAACTAGATTTTTTGTCCGCGCTTCGCGCGGATATAACATGT
As for B6, the binding result with GST-BrERF72 [3] is “no binding”.

B7: DRE/CRT probe (dsDNA)
DNA 1: ATTTCATGGCCGACCTGCTTTCATGGCCGACCTGCTTT
DNA 2: AAAGCAGGTCGGCCATGAAAGCAGGTCGGCCATGAAAT
Turning to B7, the binding result with GST-BrERF72 [1] is listed as “binds”.

B8: mBrOPR3 promoter probe (dsDNA)
DNA 1: CCTGAACCAATCATAGCCTAAAAAATAAGTCTTACAGTTGA
DNA 2: TCAACTGTAAGACTTATTTTTTAGGCTATGATTGGTTCAGG
With B8, the binding result in the data set with GST-BrERF72 [4] is listed as “no binding”.
